Measured values reported in patent US20130209454A1.
Substitutions are numbered along the chain they refer to. In names and notes the source's numbering stands.

Experiments:
Experiment in all cases: cell-based or functional assay
[1] = molecular target: HIV-1 Env of strain 1394C9G1(Rev-) (HIV-1)
[2] = molecular target: HIV-1 Env of strain 191084 B7-19 (HIV-1)
[3] = molecular target: HIV-1 Env of strain 3365.v2.c2 (HIV-1)
[4] = molecular target: HIV-1 Env of strain 6240_08_TA5_4622 (HIV-1)
[5] = molecular target: HIV-1 Env of strain 6540.v4.c1 (HIV-1)
[6] = molecular target: HIV-1 Env of strain 6952.v1.c20 (HIV-1)
[7] = molecular target: HIV-1 Env of strain 9004SS_A3_4 (HIV-1)
[8] = molecular target: HIV-1 Env of strain BF1266.431a (HIV-1)
[9] = molecular target: HIV-1 Env of strain BJOX009000.02.4 (HIV-1)
[10] = molecular target: HIV-1 Env of strain BJOX010000.06.2 (HIV-1)
[11] = molecular target: HIV-1 Env of strain BJOX028000.10.3 (HIV-1)
[12] = molecular target: HIV-1 Env of strain Ce1172_H1 (HIV-1)
[13] = molecular target: HIV-1 Env of strain HIV-0013095-2.11 (HIV-1)
[14] = molecular target: HIV-1 Env of strain TRJO4551.58 (HIV-1)
[15] = molecular target: Env of HIV-1 strain 0260.v5.c36 (HIV-1)
[16] = molecular target: Env of HIV-1 strain 1012_11_TC21_3257 (HIV-1)
[17] = molecular target: Env of HIV-1 strain 1056_10_TA11_1826 (HIV-1)
[18] = molecular target: Env of HIV-1 strain 1394C9G1(Rev-) (HIV-1)
[19] = molecular target: Env of HIV-1 strain 231966.c02 (HIV-1)
[20] = molecular target: Env of HIV-1 strain 249M B10 (HIV-1)
[21] = molecular target: Env of HIV-1 strain 3016.v5.c45 (HIV-1)
[22] = molecular target: Env of HIV-1 strain 3301.v1.c24 (HIV-1)
[23] = molecular target: Env of HIV-1 strain 3817.v2.c59 (HIV-1)
[24] = molecular target: Env of HIV-1 strain 620345.c01 (HIV-1)
[25] = molecular target: Env of HIV-1 strain 6480.v4.c25 (HIV-1)
[26] = molecular target: Env of HIV-1 strain 6952.v1.c20 (HIV-1)
[27] = molecular target: Env of HIV-1 strain 7030102001E5(Rev-) (HIV-1)
[28] = molecular target: Env of HIV-1 strain 9004SS_A3_4 (HIV-1)
[29] = molecular target: Env of HIV-1 strain A07412M1.vrc12 (HIV-1)
[30] = molecular target: Env of HIV-1 strain C2101.c01 (HIV-1)
[31] = molecular target: Env of HIV-1 strain C3347.c11 (HIV-1)
[32] = molecular target: Env of HIV-1 strain CAAN5342.A2 (HIV-1)
[33] = molecular target: Env of HIV-1 strain CNE20 (HIV-1)
[34] = molecular target: Env of HIV-1 strain CNE52 (HIV-1)
[35] = molecular target: Env of HIV-1 strain CNE53 (HIV-1)
[36] = molecular target: Env of HIV-1 strain Du422.1 (HIV-1)
[37] = molecular target: Env of HIV-1 strain HIV-16845-2.22 (HIV-1)
[38] = molecular target: Env of HIV-1 strain PVO.4 (HIV-1)
[39] = molecular target: Env of HIV-1 strain Q842.d12 (HIV-1)
[40] = molecular target: Env of HIV-1 strain R1166.c01 (HIV-1)
[41] = molecular target: Env of HIV-1 strain R2184.c04 (HIV-1)
[42] = molecular target: Env of HIV-1 strain RHPA4259.7 (HIV-1)
[43] = molecular target: Env of HIV-1 strain T251-18 (HIV-1)
[44] = molecular target: Env of HIV-1 strain THRO4156.18 (HIV-1)
[45] = molecular target: Env of HIV-1 strain WITO4160.33 (HIV-1)
[46] = molecular target: Env of HIV-1 strain X1254_c3 (HIV-1)
[47] = molecular target: Env of HIV-1 strain X2131_C1_B5 (HIV-1)
[48] = molecular target: Env of HIV-1 strain ZM197M.PB7 (HIV-1)
[49] = molecular target: Env of HIV-1 strain ZM233M.PB6 (HIV-1)
[50] = molecular target: Env of HIV-1 strain ZM53M.PB12 (HIV-1)

B1: NIH45-46^G54W(HC), S28Y(LC) (antibody, V domains shown)
VH: QVRLSQSGGQMKKPGESMRLSCRASGYEFLNCPINWIRLAPGRRPEWMGWLKPRWGAVNYARKFQGRVTMTRDVYSDTAFLELRSLTSDDTAVYFCTRGKYCTARDYYNWDFEHWGRGAPVTVSS
VL: EIVLTQSPATLSLSPGETAIISCRTSQYGSLAWYQQRPGQAPRLVIYSGSTRAAGIPDRFSGSRWGADYNLSISNLESGDFGVYYCQQYEFFGQGTKVQVDI
- IC50, pseudovirus neutralization [1]: 0.012 µg/mL
- IC50, pseudovirus neutralization [2]: 0.001 µg/mL
- IC50, pseudovirus neutralization [3]: 0.014 µg/mL
- IC50, pseudovirus neutralization [4]: 0.173 µg/mL
- IC50, pseudovirus neutralization [5]: > 50 µg/mL
- IC50, pseudovirus neutralization [6]: 0.007 µg/mL
- IC50, pseudovirus neutralization [7]: 0.046 µg/mL
- IC50, pseudovirus neutralization [8]: 0.002 µg/mL
- IC50, pseudovirus neutralization [9]: 0.14 µg/mL
- IC50, pseudovirus neutralization [10]: 1.38 µg/mL
- IC50, pseudovirus neutralization [11]: 0.001 µg/mL
- IC50, pseudovirus neutralization [12]: > 50 µg/mL
- IC50, pseudovirus neutralization [13]: 0.002 µg/mL
- IC50, pseudovirus neutralization [14]: 0.004 µg/mL

B2: NIH45-46^G54W(HC) S28Y(LC) (antibody, V domains shown)
VH: B1 VH
VL: B1 VL
- IC80 [15]: 0.084 µg/mL
- IC80 [16]: 0.008 µg/mL
- IC80 [17]: 0.289 µg/mL
- IC80 [18]: 0.055 µg/mL
- IC80 [19]: 0.076 µg/mL
- IC80 [20]: 0.017 µg/mL
- IC80 [21]: 0.037 µg/mL
- IC80 [22]: 0.006 µg/mL
- IC80 [23]: > 50 µg/mL
- IC80 [24]: > 50 µg/mL
- IC80 [25]: 0.058 µg/mL
- IC80 [26]: 0.042 µg/mL
- IC80 [27]: 0.229 µg/mL
- IC80 [28]: 0.138 µg/mL
- IC80 [29]: 0.064 µg/mL
- IC80 [30]: 0.169 µg/mL
- IC80 [31]: 0.034 µg/mL
- IC80 [32]: 0.299 µg/mL
- IC80 [33]: 0.02 µg/mL
- IC80 [34]: 0.028 µg/mL
- IC80 [35]: 0.039 µg/mL
- IC80 [36]: > 50 µg/mL
- IC80 [37]: 1.44 µg/mL
- IC80 [38]: 0.099 µg/mL
- IC80 [39]: 0.017 µg/mL
- IC80 [40]: 1.01 µg/mL
- IC80 [41]: 0.039 µg/mL
- IC80 [42]: 0.007 µg/mL
- IC80 [43]: 1.43 µg/mL
- IC80 [44]: 2.74 µg/mL
- IC80 [45]: 0.073 µg/mL
- IC80 [46]: 0.03 µg/mL
- IC80 [47]: 0.145 µg/mL
- IC80 [48]: 0.274 µg/mL
- IC80 [49]: 0.083 µg/mL
- IC80 [50]: 0.257 µg/mL

B3: NIH45-46^G54W (antibody, V domains shown)
VH: B1 VH
VL: B1 VL with Y28S
- IC80 [15]: 0.399 µg/mL
- IC80 [16]: 0.003 µg/mL
- IC80 [17]: 0.16 µg/mL
- IC80 [18]: 0.024 µg/mL
- IC80 [19]: 0.11 µg/mL
- IC80 [20]: 0.019 µg/mL
- IC80 [21]: 15.4 µg/mL
- IC80 [22]: 0.004 µg/mL
- IC80 [23]: > 50 µg/mL
- IC80 [24]: > 50 µg/mL
- IC80 [25]: 0.021 µg/mL
- IC80 [26]: 0.01 µg/mL
- IC80 [27]: 0.228 µg/mL
- IC80 [28]: 0.28 µg/mL
- IC80 [29]: 0.042 µg/mL
- IC80 [30]: 0.17 µg/mL
- IC80 [31]: 0.028 µg/mL
- IC80 [32]: 0.21 µg/mL
- IC80 [33]: 0.48 µg/mL
- IC80 [34]: 0.052 µg/mL
- IC80 [35]: 0.005 µg/mL
- IC80 [36]: > 50 µg/mL
- IC80 [37]: 2.1 µg/mL
- IC80 [38]: 0.16 µg/mL
- IC80 [39]: 0.025 µg/mL
- IC80 [40]: 0.51 µg/mL
- IC80 [41]: 0.036 µg/mL
- IC80 [42]: 0.007 µg/mL
- IC80 [43]: 0.92 µg/mL
- IC80 [44]: 1.81 µg/mL
- IC80 [45]: 0.04 µg/mL
- IC80 [46]: 0.018 µg/mL
- IC80 [47]: 0.24 µg/mL
- IC80 [48]: 0.18 µg/mL
- IC80 [49]: 0.11 µg/mL
- IC80 [50]: 0.16 µg/mL
- IC50, pseudovirus neutralization [1]: 0.001 µg/mL
- IC50, pseudovirus neutralization [2]: 0.001 µg/mL
- IC50, pseudovirus neutralization [3]: 0.01 µg/mL
- IC50, pseudovirus neutralization [4]: 0.11 µg/mL
- IC50, pseudovirus neutralization [5]: > 50 µg/mL
- IC50, pseudovirus neutralization [6]: 0.001 µg/mL
- IC50, pseudovirus neutralization [7]: 0.054 µg/mL
- IC50, pseudovirus neutralization [8]: 0.001 µg/mL
- IC50, pseudovirus neutralization [9]: 0.132 µg/mL
- IC50, pseudovirus neutralization [10]: 0.769 µg/mL
- IC50, pseudovirus neutralization [11]: 0.001 µg/mL
- IC50, pseudovirus neutralization [12]: > 50 µg/mL
- IC50, pseudovirus neutralization [13]: 0.005 µg/mL
- IC50, pseudovirus neutralization [14]: 0.01 µg/mL
